Data reported in the nanobody polyreactivity screen of Harvey et al. (2022).

Experiment: yeast display, Sf9 membrane polyspecificity reagent, FACS + sequencing; frameworks hold sequencing errors
Outline: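 Sorting gates, low and high (top ~1%), were placed on anti-HA fluorescence to track expression and on streptavidin fluorescence to track reagent binding. A clone's polyreactivity label is taken from the gate it came out of. The reagent was 10% biotinylated, detergent-solubilized Sf9 membrane, applied for 1 hour at 4 °C to galactose-induced yeast display cells.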

Row | Sequence | polyreactivity (PSR sort gate)
1 | QVQLVESGGGLVQAGGSLRLSCAASGSTSVKYAMGWYRQAPGKERELVAAIRKRGDSTYYADSVKGRFTISRDNAKNTVYLQMNSLKPEDTAVYYCAAQYLRGRGYWGQGTQVTVSA | low polyreactivity
2 | QVQLVESGGGLVQAGGSLRLSCAASGSTSVVNARGWSRPAPGKERELVAAISTGGASTYYADSVKGRYTISRDNAKNTVYLQMNSLKPEDTAVYYCAADLGYEYDYWGQCTQVTVSS | high polyreactivity
3 | QVQLVESGGGLVQAGGSLRLSCAASGSTSVYYAMGWYRQAPGKERELVAAITSGGRTYYADSVKGRFTISRDNAKNTVYLQMNSLKPEDTAVYYCNKGLYYFLPTKFRLDYWGQGTQVTVSS | high polyreactivity
4 | QVQLVESGGGLVQAGGSLRLSCAASGSTSYFNVKGWYRQAPGKERELVAAISWSGGSTYADSVKGRFTISRDNAKNTVYLQMNSLKREDTAVYYCNKDYGYVQLRFYGPGYYWGQGTQVTVSS | low polyreactivity
5 | QVQLVESGGGLVQAGGSLRLSCAASGSTSYRYAMGWYRQAPGKERELVATITSGGRTYYADSVKGRFTISRDNAKNTVYLQMNSLKPEDTAVYYCNKLNYWYKHYYWGQGTQVTVSS | high polyreactivity
6 | QVQLVESGGGLVQAGGSLRLSCAASGSTVDFNAMGWYRQAPGKERELVAGISRDGGSTYYADSVKGRFTISRDYAKNTVYLEMNSLKPEDTAVYYCAVEAWSVPPYDYWGQGTQVTVSS | low polyreactivity
7 | QVQLVESGGGLVQAGGSLRLSCAASGSTVGSNAMGWYRQAPGKERELVAAISSDGSTNYADSVKGRFTISRDNAKNTVSLQMNSLKPEETAVYYCKAVVQDADWGYDYWGQGTQVTLSS | low polyreactivity
8 | QVQLVESGGGLVQAGGSLRLSCAASGSTVNFYAMGWYRQAPGKERELVAAISWRGNTYYADSVKGRFTISRDNAKNTVYLQITSLKPEDTAVSYCDAYEWLAYTSAWYGYWGQGTQVTVSS | high polyreactivity
9 | QVQLVESGGGLVQAGGSLRLSCAASGSTWIYAMGWYRQAPGKERELVAAISGSGDRTYYADSVKGRFTISRDNAKNTVYLLMNSLQPEDTAVYFCATVYYKSGKYDYWGQGTQVTVSS | high polyreactivity
10 | QVQLVESGGGLVQAGGSLRLSCAASGSTYGGYAMGWYRQAPGKETELVAAISRSGSSTYYADSVKGRFTISRDNAKNTVYLQMNSLKPEDTAVYYCAKRRPALRWIYYYWGQGTQVTVSS | high polyreactivity
11 | QVQLVESGGGLVQAGGSLRLSCAASGSTYLYYAMGWYRQAPGKEREMVAAIWSDGSTRYADSVKGRFTISRDNAKNTVYLQMNSLKPEDTAVYYCAVYNYWGQGTQVTVSS | low polyreactivity
12 | QVQLVESGGGLVQAGGSLRLSCAASGSTYPYAMGWYRPAPGKERELVAAITWSGGNTYYADSVKGRFTISRDNAKNTVYLQMNSLKPEDTAVYYCAKSRYATQTDYNYWGQGTQVTVSS | high polyreactivity
13 | QVQLVESGGGLVQAGGSLRLSCAASGSTYQNAMGWYRQAPGKEREFVAAISWSGGSTYYADSVKGRFTISRDNAKNTVYLQMNSLKPEDTAVYYCAAYSYFSPWYDYWGQGTQVTVSS | high polyreactivity
14 | QVQLVESGGGLVQAGGSLRLSCAASGSTYRLYTMGWYRQAPGKERELVAAITSGGSTNYADSVKGRFTISRDNAKNTVYLQMYSLKPEDTAVYYCAKAKRFPSFDYWGQGTQVTVSS | low polyreactivity
15 | QVQLVESGGGLVQAGGSLRLSCAASGSTYRPYAMGWYRQAPGKERELVAAITGSGGSTYYADSVKGRFTISRDNAKITDYLQMNSLKPEDTAVYYCNAVSTWRYYYWGQGTQVTVSS | high polyreactivity
16 | QVQLVESGGGLVQAGGSLRLSCAASGSTYSTNAMGWYRQAPGKERELVAAISRSGGSTYYADTVKRRFTISRDNAKITVYLQMNRLKPEDTAVYYCARYSFRGTNVRYDYWGQGTQVTVSS | high polyreactivity
17 | QVQLVESGGGLVQAGGSLRLSCAASGSTYSYYVMGWYRQAPGKERELVAAISRSGGRTYYADSVKGRFTISRDNAKNTVYLQMNSLKPEDTAVNYCAAREFDHPPYDYWGQGTQVTVSS | high polyreactivity
18 | QVQLVESGGGLVQAGGSLRLSCAASGSTYTNAMGWYRPAPGKERELVAAITWSGGTTYYADSVKGRLTISRDNAKNTVYLQMNSLKPEDTAVYYCAAEYRWYSRYFNYWGQGTQVTVSS | high polyreactivity
19 | QVQLVESGGGLVQAGGSLRLSCAASGSTYWINAMGWYRQAPGKEREFVAAIRWNGGSTNYADSVKGRFTISRDNAKNTVYLQMNSLKPEDTAVYYCAADGYIGWRHIYEYWGQGTQVTVSS | low polyreactivity
20 | QVQLVESGGGLVQAGGSLRLSCAASGSTYWNAMGWYRQAPGKERELVAAITFRGGSTYADSLKGRFTISRDNAKNTVSLQMISLKPEDTAVYYCAKASYHRWYNVRNRAGYDYWGQGTQVTVSS | high polyreactivity
21 | QVQLVESGGGLVQAGGSLRLSCAASGSTYYIYAMGWYRQAPGKEREMVAAISDNGGTTYYADSVKGRFTISRDNAKNTVYLQMNSLKPEDTAVYYCNAEGWWYWYYGSYDYWGQGTQVTVSS | high polyreactivity
22 | QVQLVESGGGLVQAGGSLRLSCAASGSTYYLYAMGWYRQAPGKERELVAVITWSDGSTYYADSVKGRFTISRDNAKNTVYFQMNSLKPEDTAVSYCAKDLDSGGRGYYWGQGTQVTVSS | low polyreactivity

Row | Sequence | polyreactivity (PSR sort gate)
23 | QVQLVESGGGLVQAGGSLRLSCAASGSTYYNAMGWYRQAPGKERELVAAIRFRSGSTYYADSVKGRFTISRDNAKNTVYLQMNSLKPEDTAVYYCNKVPYRGYRRYGYWGQGTQVTVSS | high polyreactivity
24 | QVQLVESGGGLVQAGGSLRLSCAASGSTYYSNAMGWYRPAPGKERELVAGIDTSDGSTNYADSVKGRFTISRDNAKNTVYLQMNSLKPEDTAVYYCAADYTQPGFVSYDYWGQGTQVTVSS | low polyreactivity
25 | QVQLVESGGGLVQAGGSLRLSCAASGTFAGNAMGWYRQAPGKERELVAAITTGGRTYYADSVKGRFTISRDNAKNTVYLQMNSLKPEDTAVYYCAADRIRDLEFDYWGQGTKVTVSS | low polyreactivity
26 | QVQLVESGGGLVQAGGSLRLSCAASGTFARYAMGWYRQAPGKERELVAAISRRGGSTYYADSVKGRFTISRDNAKNTVYLQMNSLKPEDTAVYYCAADNTQVRPKYDYWGQGTQVTVSS | high polyreactivity
27 | QVQLVESGGGLVQAGGSLRLSCAASGTFFIYAMGWYRHAPGKERELVATISTGGSTNYADSVKGRFTISRDNAKNTVYLQMNSLKQEDTAVYYCAAEWLYPHDGGYPRPMDYWGQGTQVTVSS | low polyreactivity
28 | QVQLVESGGGLVQAGGSLRLSCAASGTFFIYAMGWYRQAPGKERELVATISTGGSTNYADSVKGRFTISRDNAKNTVYLQMNSLKPEDTAVYYCAAEWLYPHDGGYPRPMDYWGQGTQVTVSS | low polyreactivity
29 | QVQLVESGGGLVQAGGSLRLSCAASGTFKWYAMGWYRQAPGKERELVAVISSSGGTTSYADSVKGRFTITRDNAKNTVYLQMNSLKPEDTAVYYCNRVWSTSMDYWGQGTQVTVSS | high polyreactivity
30 | QVQLVESGGGLVQAGGSLRLSCAASGTFPDYAMGWYRQAPGKERELVAAITYRGGSTYYADSVKGRFTISRDNAKNTVYLQMNSLKPEDTAVYYCAADVVNAYKSLLVGDMYYWGQGTQVTVSS | high polyreactivity
31 | QVQLVESGGGLVQAGGSLRLSCAASGTFPGNAMGWYRQPPGKERELVATITRGGRTYYADSVKGRVTISRDNANNTVYLQMNSLKPEDTAVYYCNTSVYSGKIRGYDYGGQGTQVTVSS | high polyreactivity
32 | QVQLVESGGGLVQAGGSLRLSCAASGTFQRYAMGWYRQAPGKERELVAGISSAGDTNYADSVKGRFTISRDNAKNTVYLQMKSLKPEDTAVYYCNAAYFAGPADDKFDYWGQGTQVTVSS | low polyreactivity
33 | QVQLVESGGGLVQAGGSLRLSCAASGTFTVNTMGCYRQAPGKERELVAAISTGDTTTYADSVKGRFTISRDNAKNTVYLQMNSLKPEDTAVYYCNVDIGVYAYESDYWGQGTQVTVSS | low polyreactivity
34 | QVQLVESGGGLVQAGGSLRLSCAASGTFTVNTMGWYRQAPGKVRELVAAISTGDTTTYADSVKGRFTISRDNAKNTVYLQMNSLKPEDTAVYYCIVDIGVYAYESDYWGQGTQVTVSS | low polyreactivity
35 | QVQLVESGGGLVQAGGSLRLSCAASGTFTVNTMGWYRQAPGKVSELVAAISTGDTTTYADSVKGRFTISRDNAKNTVYFQLNSLKPEDTAVYYCNVDIGVYAYESDYWGQGTQVTVSS | low polyreactivity
36 | QVQLVESGGGLVQAGGSLRLSCAASGTFYGKTMGWYRQAPGKERELDAVISIDGSTNYADSVKGRFTISRDNAKKTVYLQMNSLKPEDTAVYYCNARNQWRTVGKYDYWGQGTQVTVSS | low polyreactivity
37 | QVQLVESGGGLVQAGGSLRLSCAASGTFYKYAMGWYRQAPGKERELVAAISWRGGRTYADSVKGRFTISRDNANNTVYLQMNSLKPEDTAVYYCAAEYRYDWYTYGYWGQGTQVTVSS | high polyreactivity
38 | QVQLVESGGGLVQAGGSLRLSCAASGTFYRNAMGWYRQAPGKERELVAAISSGSNTDYADSVKGRFTISRDNAKNTVYVQMNSLKPEDTALYYCNADRGDLYDLRGSGYLDGYWGQGTQVTVSS | low polyreactivity
39 | QVQLVESGGGLVQAGGSLRLSCAASGTIFDVNALGWYRQAPGKERELVAAITSGGGTNYADSVKGRFTISRDNAKNTVYLQMNSLKPEDTAVYYCAADHVYYDYDYWGQGTQVTVSS | low polyreactivity
40 | QVQLVESGGGLVQAGGSLRLSCAASGTIFGEYAMGWYRQAPAKERELVADITTGGNTNYADSVKGRFTISRDNAKNTVYLQMNSLTPEATAVYYCAADFFSRDWGQGTQVTVSS | low polyreactivity
41 | QVQLVESGGGLVQAGGSLRLSCAASGTIFNRYAMGWYRQAPGKERELVAAITRGGTTYYADSVKGRFTISRDNATNTVYLQMNSLKPEDTAVYYCAARLRYTTVIYYYWGQGTQVTVSS | high polyreactivity
42 | QVQLVESGGGLVQAGGSLRLSCAASGTIFYDNDMGLYRQAPGKERELVAAISWSASDTYYADSVKGRFTISRDNAKNTVFLQMMSLKPEDTAVYYCNAEVYEWYVVYSALDYWGQVTQVTVSS | low polyreactivity
43 | QVQLVESGGGLVQAGGSLRLSCAASGTLSSYAMGWYRQAPGKERELVAAISLSGGSTYADSVKGRFTISRDNAKNTVYLQMNSLKPEDTAVYYCAKDWDVDITWSFSIYNYWGQGTQVTVSS | low polyreactivity
